Test results as given in paper PMC12077149 (mBio, 2025).

Target: the molecule itself
Assay: SEC; 24 mL Superdex-200, 150 mM NaCl, 50 mM Tris-HCl pH 8.0; MW estimated from a linear fit of MW standards

B1: 6×His-PqsE (wild type, P. aeruginosa) (enzyme)
chain: MLRLSAPGQLDDDLCLLGDVQVPVFLLRLGEASWALVEGGISRDAELVWADLCRWVADPSQVHYWLITHKHYDHCGLLPYLCPRLPNVQVLASERTCQAWKSESAVRVVERLNRQLLRAEQRLPEACAWDALPVRAVADGEWLELGPRHRLQVIEAHGHSDDHVVFYDVRRRRLFCGDALGEFDEAEGVWRPLVFDDMEAYLESLERLQRLPTLLQLIPGHGGLLRGRLAADGAESAYTECLRLCRRLLWRQSMGESLDELSEELHRAWGGQSVDFLPGELHLGSMRRMLEILSRQALPLD
notes: also called WT PqsE
  stoichiometry N: 2
